# B1: Sorting nexin-20 (Homo sapiens), Q7Z614 (parent)
# chain: MASPEHPGSPGCMGPITQCTARTQQEAPATGPDLPHPGPDGHLDTHSGLSSNSSMTTRELQQYWQNQKCRWKHVKLLFEIASARIEERKVSKFVVYQIIVIQTGSFDNNKAVLERRYSDFAKLQKALLKTFREEIEDVEFPRKHLTGNFAEEMICERRRALQEYLGLLYAIRCVRRSREFLDFLTRPELREAFGCLRAGQYPRALELLLRVLPLQEKLTAHCPAAAVPALCAVLLCHRDLDRPAEAFAAGERALQRLQAREGHRYYAPLLDAMVRLAYALGKDFVTLQERLEESQLRRPTPRGITLKELTVREYLH
# partner: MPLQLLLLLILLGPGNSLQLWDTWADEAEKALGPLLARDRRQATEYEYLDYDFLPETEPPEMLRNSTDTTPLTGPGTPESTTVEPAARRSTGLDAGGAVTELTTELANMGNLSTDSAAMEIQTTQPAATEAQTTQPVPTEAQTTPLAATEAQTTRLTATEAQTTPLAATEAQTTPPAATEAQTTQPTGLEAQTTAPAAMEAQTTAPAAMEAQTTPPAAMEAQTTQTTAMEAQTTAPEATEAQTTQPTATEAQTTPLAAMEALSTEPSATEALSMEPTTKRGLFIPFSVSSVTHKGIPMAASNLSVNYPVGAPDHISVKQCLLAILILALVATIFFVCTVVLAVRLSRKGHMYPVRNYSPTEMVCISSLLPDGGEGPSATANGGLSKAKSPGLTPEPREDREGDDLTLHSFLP
# Variants of: B1
# Conditions: with selpl_human SELPLG
row,effect of a mutation on the interaction,Variant
1,disrupting interaction,R116Q
